Target: T1, C-terminally truncated bovine AC9_(1250) (residues 1-1250 of AC9) (bovine, UniProt E1BM79 1-1250)
T1 construct: the purification is said to be identical to that of AC9; source: HEK293F cells, transient transfection (PEI), purified as AC9
T1 sequence (looked up): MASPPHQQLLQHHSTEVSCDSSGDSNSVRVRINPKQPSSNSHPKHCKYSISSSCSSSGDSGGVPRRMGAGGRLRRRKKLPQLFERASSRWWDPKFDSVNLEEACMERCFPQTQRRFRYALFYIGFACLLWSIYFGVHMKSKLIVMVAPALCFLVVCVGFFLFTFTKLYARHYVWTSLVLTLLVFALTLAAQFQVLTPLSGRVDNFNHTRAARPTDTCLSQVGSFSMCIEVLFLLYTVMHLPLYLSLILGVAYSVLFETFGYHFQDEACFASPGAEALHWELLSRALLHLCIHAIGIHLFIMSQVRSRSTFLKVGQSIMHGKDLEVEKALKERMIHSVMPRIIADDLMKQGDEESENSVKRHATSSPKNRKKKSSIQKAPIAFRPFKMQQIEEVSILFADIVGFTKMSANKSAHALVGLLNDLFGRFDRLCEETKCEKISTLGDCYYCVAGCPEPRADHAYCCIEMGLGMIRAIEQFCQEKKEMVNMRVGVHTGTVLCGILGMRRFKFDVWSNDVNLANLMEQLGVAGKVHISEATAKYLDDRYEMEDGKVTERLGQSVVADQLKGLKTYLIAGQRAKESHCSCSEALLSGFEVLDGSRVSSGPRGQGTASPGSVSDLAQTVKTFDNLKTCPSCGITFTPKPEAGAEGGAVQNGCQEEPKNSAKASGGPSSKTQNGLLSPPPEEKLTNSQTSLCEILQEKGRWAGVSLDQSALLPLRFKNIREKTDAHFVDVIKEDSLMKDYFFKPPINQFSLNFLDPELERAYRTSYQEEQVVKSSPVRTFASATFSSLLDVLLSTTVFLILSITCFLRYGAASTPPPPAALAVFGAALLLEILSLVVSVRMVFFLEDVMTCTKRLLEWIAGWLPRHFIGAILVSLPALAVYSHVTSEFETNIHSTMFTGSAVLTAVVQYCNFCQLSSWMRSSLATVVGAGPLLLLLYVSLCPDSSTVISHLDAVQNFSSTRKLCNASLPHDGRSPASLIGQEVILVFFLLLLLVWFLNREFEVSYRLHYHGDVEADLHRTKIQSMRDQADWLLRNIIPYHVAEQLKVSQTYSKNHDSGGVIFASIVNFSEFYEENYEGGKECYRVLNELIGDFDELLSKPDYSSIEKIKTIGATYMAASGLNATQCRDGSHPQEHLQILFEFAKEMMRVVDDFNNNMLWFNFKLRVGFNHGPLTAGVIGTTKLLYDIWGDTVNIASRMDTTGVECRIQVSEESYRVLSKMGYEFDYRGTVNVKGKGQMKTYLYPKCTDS
Assay: cryo-EM structure; AC9_(1250) at 5 mg/ml with 5 mM MnCl2, 0.5 mM MANT-GTP and a 2-fold molar excess of GTPγS-activated Gαs, 30 min at 4 °C; no forskolin; soluble part refined to 3.8 Å
Settings: both partners purified

B1: bovine Gαs (G protein αs subunit), GTPγS-activated (natural protein, UniProt P04896-1 1-394, looked up)
chain: MGCLGNSKTEDQRNEEKAQREANKKIEKQLQKDKQVYRATHRLLLLGAGESGKSTIVKQMRILHVNGFNGEGGEEDPQAARSNSDGEKATKVQDIKNNLKEAIETIVAAMSNLVPPVELANPENQFRVDYILSVMNVPDFDFPPEFYEHAKALWEDEGVRACYERSNEYQLIDCAQYFLDKIDVIKQDDYVPSDQDLLRCRVLTSGIFETKFQVDKVNFHMFDVGGQRDERRKWIQCFNDVTAIIFVVASSSYNMVIREDNQTNRLQEALNLFKSIWNNRWLRTISVILFLNKQDLLAEKVLAGKSKIEDYFPEFARYTTPEDATPEPGEDPRVTRAKYFIRDEFLRISTASGDGRHYCYPHFTCAVDTENIRRVFNDCRDIIQRMHLRQYELL
notes: bovine Gαs, Uniprot ID P04896-1; also called G protein α subunit; source: High Five insect cells, baculovirus, purified (Ni-NTA, Superdex 200 SEC)
binding result: binds

Source: publication PMC8873477, “Structural basis of adenylyl cyclase 9 activation” (Nature Communications, 2022)
